Measurements from patent publication US8821943B2, “Methods and compositions for targeted delivery of therapeutic agents” (Board of Regents of the University of Nebraska, priority 2006, dated 2014).

Columns and labels:
[1] = test system: ARPE-19 cells; assay: Nanoparticle uptake by human retinal pigment epithelial cells; assay type: cell-based; details: 1 ml of 100 μg/ml suspension in serum free medium
Method: A study was performed to examine the effect of targeting moieties on biodegradable and non-biodegradable carrier particles and their uptake in ocular cells. The biodegradable and non-biodegradable targeted carrier particles of the preceding Example were used. Uptake of nanoparticles by human retinal pigment epithelial cells (ARPE-19 cell line) was quantified by measuring fluorescence in cell lysate obtained after incubation of targeted or untargeted (unconjugated) nanoparticles with ARPE-19 cell monolayers.
ARPE-19 cells were obtained from American Type Culture Collection (ATCC, Manassas, Va.). The cells were maintained in culture according to supplier's recommendation. All studies were conducted using confluent cells of passages 20-30. Dulbecco's modified Eagle's medium (DMEM-F/12), fetal bovine serum, penicillin-streptomycin and L-glutamine were obtained from Gibco-BRL (Invitrogen Inc., Carlsbad, Calif.). Cell culture flasks (T-75 cm^2) and plates were purchased from Corning Inc., (Corning, N.Y.). To investigate the uptake of particles, ARPE-19 cells between 20-30 passages were cultured in 24-well plates until confluency. […] Fluorescence intensity of the cell lysates was determined at an excitation and emission wavelength of 505 and 515 nm, respectively, for FluoSpheres®. […]

[2] = Particle size, polydispersity and zeta-potential by dynamic light scattering; assay type: physicochemical; details: Table 6
Method: Nanoparticle carrier particles were formed by the methods of the preceding Example, and characterized as follows. The particle size and the zeta-potential were measured using Zeta Plus zeta-potential analyzer (Brookhaven Instruments Ltd., New York, N.Y.), which employs the dynamic light scattering technique for particle size measurement. The particle size and zeta-potential measurements were made after 1:1000 dilution of particle stock in filtered deionized water. Further, the particles were visualized using a transmission electron microscope (TEM). The carbon-coated grids were floated on a suspension droplet of plain or functionalized nanoparticles on a flexible plastic film (Parafilm, Pechiney Plastic Packaging, Neenah, Wis.) to allow the adsorption of nanoparticles onto the grid. After drying the particles, uranyl acetate was added as a negative stain to the carbon grid and allowed to react with the particles. This procedure makes the particles electron dense, allowing their visualization using an electron microscope. The particles were photographed using EM410 Phillips electron microscope (Eindhoven, The Netherlands) set at 60 kV and a magnification of 153000×.
Characterization of particles: The particle size and the zeta-potential were measured using ZetaPlus® zeta-potential analyzer, Brookhaven Instruments Ltd. (New York, N.Y.), which employs the dynamic light scattering technique for particle size measurement. The particle size and zeta-potential measurements were carried out after 1:1000 dilution of particle stock in filtered deionized water before lyophilization in filtered deionized water. The effective diameter of conjugated nanoparticles was higher than that of unconjugated nanoparticles.
Particle Size Analysis: Particle size and zeta-potential of the nanoparticles before and after conjugation following lyophilization were measured in double distilled water (100 μl of particle/1 ml of water) using dynamic light scattering (DLS). After lyophilization the plasmid loaded particles were weighed (1 mg) into glass Kimble tubes. To each tube, 1 ml of double distilled water was added and vortexed at high speed (Vortex Genie, Scientific Industries, Bohemia, N.Y.) till the particles were resuspended. The particle size and zeta potential was determined using dynamic light scattering after dilution (1:10 in double distilled water) (Brookhaven Instruments Corp., Holtsville, N.Y.). Nanoparticle size after lyophilization was 210.4±0.68 nm and zeta potential was −32.85±0.87 mV. Nanoparticle size and zeta potential was measured after conjugation with deslorelin and transferrin. Similarly, the unconjugated nanoparticles were also treated under the same conditions as with the conjugated nanoparticles (the conjugation protocol as mentioned above).
Transport studies were conducted in bovine nasal tissue. Bovine nasal tissue was obtained from freshly slaughtered cattle, and different regions (MTA, MTP, ITP) were prepared as described in Example 13. Nanoparticles coupled to deslorelin or transferring via aldehyde sulfate moieties were prepared as described in Example 3. The nanoparticle size was measured using a Zeta Plus Analyzer (Brookhaven Instruments Limited, UK). Particle size was analyzed before and after ligand conjugation in deionized filtered water.

[3] = target: T1, LHRH-receptor (Bos taurus, UniProt P32236); assay: Receptor binding assays (kinetic, saturation, competition) with 125I-deslorelin in bovine pituitary and nasal tissue homogenates; details: 4° C.; remained stable until 4 hr
T1 construct: The tissue homogenate was then centrifuged at 15000 g for 15 min at 4° C. to separate the crude membrane from the buffer; from tissue; host or cells: bovine nasal mucosa (MTA, MTP, ITP regions) and bovine pituitary, crude membrane homogenates
T1 sequence (P32236 1-328): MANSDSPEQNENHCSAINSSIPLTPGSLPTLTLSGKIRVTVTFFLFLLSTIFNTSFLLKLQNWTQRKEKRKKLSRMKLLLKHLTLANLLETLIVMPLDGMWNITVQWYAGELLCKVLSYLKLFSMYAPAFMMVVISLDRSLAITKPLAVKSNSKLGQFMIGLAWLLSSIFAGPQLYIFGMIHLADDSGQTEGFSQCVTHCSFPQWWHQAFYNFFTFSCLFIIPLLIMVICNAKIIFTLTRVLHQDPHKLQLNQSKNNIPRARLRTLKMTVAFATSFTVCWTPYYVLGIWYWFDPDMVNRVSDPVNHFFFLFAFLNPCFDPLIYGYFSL
Method: Radioactivity was measured in the pellet using a Perkin-Elmer γ-counter.
Reprod. […] Reprod. […] Radioactivity was measured in the pellet using a Perkin-Elmer γ-counter. […] The experiment was repeated three times.
Competition Studies: To determine the amount of unlabelled deslorelin required to displace the radioactivity, competition studies were conducted. […] Assays were performed in triplicates. At the end of 4 hr, the incubation tubes were centrifuged at 10,000 g for 20 min at 4° C. to separate the bound fraction. Radioactivity was measured in the pellet using a Perkin-Elmer γ-counter. The same controls as in the kinetic and saturation studies were used. The experiment was repeated three times.

time at which binding reached a maximum [3] [h] | Substance | percentage uptake at 3 h by ARPE-19 cells [1] [%] | Zeta potential [2] [mV] | Effective diameter ([2]; 1:1000 dilution in filtered deionized water) [nm]
– | Transferrin-PLGA: transferrin conjugated nile red loaded PLGA nanoparticles | 3.32±0.1 | −17.94 ± 1.5 | 385.8 ± 4.6
1.5 | ^125I-deslorelin: I^125 labeled deslorelin radioligand (EHWSYWLRP; D-residues; non-natural residues) | – | – | –
